From patent US20260167699A1 (Chugai, published 2026)
One block for each binder: values may come before it.

Target: T1, FcγRIIIa extracellular domain, C-terminal His tag (human, UniProt P08637 17-208)
T1 construct: extracellular domain; also called 3a
Assay: SPR, binding activity relative to GpH7-A5/GpH7-B3/GpL16-k0 (=100)

T1 sequence (P08637 other isoform, or with tags, fused parts or gaps): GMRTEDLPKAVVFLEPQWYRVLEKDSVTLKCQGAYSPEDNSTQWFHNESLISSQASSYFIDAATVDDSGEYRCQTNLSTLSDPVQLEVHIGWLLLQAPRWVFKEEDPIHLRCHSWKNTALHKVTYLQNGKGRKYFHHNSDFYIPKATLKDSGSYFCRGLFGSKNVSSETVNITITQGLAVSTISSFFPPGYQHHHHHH

B2: GpH7-A5/GpH7-B3 variant H268_03V/GpL16-k0 (antibody, human IgG1, kappa)
heavy 1: not shown
heavy 2: not shown
light: DIVMTQSPLSLPVTPGEPASISCQASESLVHSNRNTYLHWYLQKPGQSPQLLIYKVSNRFSGVPDRFSGSGSGTDFTLKISRVEAEDVGVYYCSQNTHVPPTFGQGTKVEIERTVAAPSVFIFPPSDEQLKSGTASVVCLLNNFYPREAKVQWKVDNALQSGNSQESVTEQDSKDSTYSLSSTLTLSKADYEKHKVYACEVTHQGLSSPVTKSFNRGEC
notes: He Ab; copies: 1 + 1 + 2
He/Con 3a: 91.4%

B5: GpH7-A5/GpH7-B3 variant L234_03V/GpL16-k0 (antibody, human IgG1, kappa)
heavy 1: not shown
heavy 2: not shown
light: B2 light
notes: He Ab; copies: 1 + 1 + 2
He/Con 3a: 88.3%

B6: GpH7-A5/GpH7-B3 variant L234_05P/GpL16-k0 (antibody, human IgG1, kappa)
heavy 1: not shown
heavy 2: not shown
light: B2 light
notes: He Ab; copies: 1 + 1 + 2
He/Con 3a: 85.1%

B8: GpH7-A5/GpH7-B3 variant I332_06M/GpL16-k0 (antibody, human IgG1, kappa)
heavy 1: not shown
heavy 2: not shown
light: B2 light
notes: He Ab; copies: 1 + 1 + 2
He/Con 3a: 92.5%

B12: GpH7-A5/GpH7-B3 variant H268_07I/GpL16-k0 (antibody, human IgG1, kappa)
heavy 1: not shown
heavy 2: not shown
light: B2 light
notes: He Ab; copies: 1 + 1 + 2
He/Con 3a: 84.1%

B13: GpH7-A5/GpH7-B3 variant I332_19Q/GpL16-k0 (antibody, human IgG1, kappa)
heavy 1: not shown
heavy 2: not shown
light: B2 light
notes: He Ab; copies: 1 + 1 + 2
He/Con 3a: 101%

B15: GpH7-A5/GpH7-B3 variant G236_10E/GpL16-k0 (antibody, human IgG1, kappa)
heavy 1: not shown
heavy 2: not shown
light: B2 light
notes: He Ab; copies: 1 + 1 + 2
He/Con 3a: 65.8%

B21: GpH7-A5/GpH7-B3 variant I332_14T/GpL16-k0 (antibody, human IgG1, kappa)
heavy 1: not shown
heavy 2: not shown
light: B2 light
notes: He Ab; copies: 1 + 1 + 2
He/Con 3a: 110%

B22: GpH7-A5/GpH7-B3 variant H268_04F/GpL16-k0 (antibody, human IgG1, kappa)
heavy 1: not shown
heavy 2: not shown
light: B2 light
notes: He Ab; copies: 1 + 1 + 2
He/Con 3a: 96%

B23: GpH7-A5/GpH7-B3 variant H268_02A/GpL16-k0 (antibody, human IgG1, kappa)
heavy 1: not shown
heavy 2: not shown
light: B2 light
notes: He Ab; copies: 1 + 1 + 2
He/Con 3a: 121%

B25: GpH7-A5/GpH7-B3 variant L234_13S/GpL16-k0 (antibody, human IgG1, kappa)
heavy 1: not shown
heavy 2: not shown
light: B2 light
notes: He Ab; copies: 1 + 1 + 2
He/Con 3a: 68.1%

B26: GpH7-A5/GpH7-B3 variant K326_08L/GpL16-k0 (antibody, human IgG1, kappa)
heavy 1: not shown
heavy 2: not shown
light: B2 light
notes: He Ab; copies: 1 + 1 + 2
He/Con 3a: 126%

B27: GpH7-A5/GpH7-B3 variant K326_18N/GpL16-k0 (antibody, human IgG1, kappa)
heavy 1: not shown
heavy 2: not shown
light: B2 light
notes: He Ab; copies: 1 + 1 + 2
He/Con 3a: 134%

More lines, now with the values ahead:

He/Con 3a: 55.6%
B1: GpH7-A5/GpH7-B3 variant G236_07I/GpL16-k0 (antibody, human IgG1, kappa)
heavy 1: not shown
heavy 2: not shown
light: B2 light
notes: He Ab; copies: 1 + 1 + 2

He/Con 3a: 114%
B3: GpH7-A5/GpH7-B3 variant K326_01G/GpL16-k0 (antibody, human IgG1, kappa)
heavy 1: not shown
heavy 2: not shown
light: B2 light
notes: He Ab; copies: 1 + 1 + 2

He/Con 3a: 81.6%
B4: GpH7-A5/GpH7-B3 variant H268_11K/GpL16-k0 (antibody, human IgG1, kappa)
heavy 1: not shown
heavy 2: not shown
light: B2 light
notes: He Ab; copies: 1 + 1 + 2

He/Con 3a: 114%
B7: GpH7-A5/GpH7-B3 variant K326_04F/GpL16-k0 (antibody, human IgG1, kappa)
heavy 1: not shown
heavy 2: not shown
light: B2 light
notes: He Ab; copies: 1 + 1 + 2

He/Con 3a: 114%
B9: GpH7-A5/GpH7-B3 variant L234_04F/GpL16-k0 (antibody, human IgG1, kappa)
heavy 1: not shown
heavy 2: not shown
light: B2 light
notes: He Ab; copies: 1 + 1 + 2

He/Con 3a: 153%
B10: GpH7-A5/GpH7-B3 variant K326_07I/GpL16-k0 (antibody, human IgG1, kappa)
heavy 1: not shown
heavy 2: not shown
light: B2 light
notes: He Ab; copies: 1 + 1 + 2

He/Con 3a: 99.5%
B11: GpH7-A5/GpH7-B3 variant L234_07I/GpL16-k0 (antibody, human IgG1, kappa)
heavy 1: not shown
heavy 2: not shown
light: B2 light
notes: He Ab; copies: 1 + 1 + 2

He/Con 3a: 75.9%
B14: GpH7-A5/GpH7-B3 variant H268_08L/GpL16-k0 (antibody, human IgG1, kappa)
heavy 1: not shown
heavy 2: not shown
light: B2 light
notes: He Ab; copies: 1 + 1 + 2

He/Con 3a: 117%
B16: GpH7-A5/GpH7-B3 variant K326_05P/GpL16-k0 (antibody, human IgG1, kappa)
heavy 1: not shown
heavy 2: not shown
light: B2 light
notes: He Ab; copies: 1 + 1 + 2

He/Con 3a: 95.6%
B17: GpH7-A5/GpH7-B3 variant I332_13S/GpL16-k0 (antibody, human IgG1, kappa)
heavy 1: not shown
heavy 2: not shown
light: B2 light
notes: He Ab; copies: 1 + 1 + 2

He/Con 3a: 51.3%
B18: GpH7-A5/GpH7-B3 variant G237_03V/GpL16-k0 (antibody, human IgG1, kappa)
heavy 1: not shown
heavy 2: not shown
light: B2 light
notes: He Ab; copies: 1 + 1 + 2

He/Con 3a: 66.2%
B19: GpH7-A5/GpH7-B3 variant G236_09D/GpL16-k0 (antibody, human IgG1, kappa)
heavy 1: not shown
heavy 2: not shown
light: B2 light
notes: He Ab; copies: 1 + 1 + 2

He/Con 3a: 89.3%
B20: GpH7-A5/GpH7-B3 variant I332_04F/GpL16-k0 (antibody, human IgG1, kappa)
heavy 1: not shown
heavy 2: not shown
light: B2 light
notes: He Ab; copies: 1 + 1 + 2

He/Con 3a: 55.8%
B24: GpH7-A5/GpH7-B3 variant L234_01G/GpL16-k0 (antibody, human IgG1, kappa)
heavy 1: not shown
heavy 2: not shown
light: B2 light
notes: He Ab; copies: 1 + 1 + 2

He/Con 3a: 113%
B28: GpH7-A5/GpH7-B3 variant H268_19Q/GpL16-k0 (antibody, human IgG1, kappa)
heavy 1: not shown
heavy 2: not shown
light: B2 light
notes: He Ab; copies: 1 + 1 + 2

He/Con 3a: 85.2%
B29: GpH7-A5/GpH7-B3 variant I332_03V/GpL16-k0 (antibody, human IgG1, kappa)
heavy 1: not shown
heavy 2: not shown
light: B2 light
notes: He Ab; copies: 1 + 1 + 2

He/Con 3a: 69.7%
B30: GpH7-A5/GpH7-B3 variant L234_02A/GpL16-k0 (antibody, human IgG1, kappa)
heavy 1: not shown
heavy 2: not shown
light: B2 light
notes: He Ab; copies: 1 + 1 + 2
